One data set deals with T1, NCAM Ig1 domain (Rattus norvegicus, UniProt P13596).
T1 construct: The Ig1 domain of NCAM was produced as a recombinant protein in Pichia pastoris; made in house; host or cells: Pichia pastoris strain His 4 GS-115 (pHIL-S1 plasmid)
Nature of the data set: Real-time biomolecular interaction analysis (BIAlite surface plasmon resonance), Ig1 applied to immobilised dendrimer peptides. As to conditions: dendrimer peptides immobilised on sensor chip CM5, 25° C., HBS; two independent experiments. Type of data set: binding. An excerpt: The Ig1 domain of NCAM was produced as a recombinant protein in Pichia pastoris. The cDNA fragment of rat NCAM was synthesised by PCR, and amplified cDNA was subcloned into an Xho I/Bam HI site of the pHIL-S1 plasmid (Invitrogen Corporation, San Diego, USA). An E. coli strain Top 10 F′ (Invitrogen Corporation, San Diego, USA) was used for transformation. The recombinant plasmid was linearised with Nsi I and used for transformation of Pichia pastoris strain His 4 GS-115 (Invitrogen Corporation, San Diego, USA). Transformation and selection was performed according to a Pichia Expression Kit manual supplied by the manufacturer. The recombinant protein was designated as Ig1 PP (Ig-like domain 1 produced in P. pastoris) The authenticity of Ig1 PP was secured by amino acid sequencing and MALDI-MS confirming the expected molecular weight of 11 kD. Cells were grown essentially according to the Pichia Expression Kit manual. After induction supernatant from growing cells was filtered through a […] filter, concentrated by ultrafiltration and purified by gel filtration using a Sephadex G-50 column (Pharmacia Biotech AB, Sweden) (Thomsen et al., 1996).
Real-time biomolecular interaction analysis was performed using a BIAlite instrument (Pharmacia Biosensor AB, Sweden). All experiments were performed at 25° C. using Hepes buffered saline (HBS: 10 mM Hepes pH 7.4, 150 mM NaCl, 3.4 mM EDTA, 0.005% v/v Surfactant P20 (Pharmacia Biosensor, Sweden) as running buffer. The flow rate was […]. Dendrimer peptides C3d, D3d and D4d (four peptide-monomers coupled to a backbone consisting of three lysines) were immobilised on a sensor chip CM5 (Pharmacia Biosensor AB, Sweden) using the following procedure: the chip was activated by […] 0.05 M N-hydroxysuccinimide, 0.2 M N-ethyl-N′-(dimethylaminopropyl)carbodiimide; peptides were immobilised using […] peptide solution in HBS at a concentration of 60 μg/ml; finally the chip was blocked by 35 μl 1 M ethanolamine hydrochloride pH 8.5. Binding of Ig1 to dendrimer peptides: […] of Ig1 or Ig1I at the indicated concentrations were applied. […]

Data set [1] relates to cells presenting NCAM or NCAM ligands. Kind of data set: Prevention of cell death (survival) of cells presenting NCAM or NCAM ligands. Type of data set: cell-based. Conditions: general statement; data only in figures. The protocol:
PC12 cells were differentiated by plating them in 96-well tissue culture plates in defined medium (DMEM) supplemented with NGF (50-100 ng/ml) and were normally used after 6-8 days of NGF treatment. NGF withdrawal was performed as follows: the medium was removed, and the cells were quickly rinsed twice with pre-warmed medium, and then re-fed with DMEM supplemented with C3d. After 2 days of incubation cells were assayed for cell survival by measuring reduction of a novel tetrazolium compound, MTS (Promega, USA), which is bioreduced by cells into a formazan that is soluble in tissue culture medium. The absorbance of the formazan at 490 nm was measured directly from 96 well assay plates without additional processing. The conversion of MTS into the aqueous soluble formazan was accomplished by dehydrogenase enzymes found in metabolically active cells. The quantity of formazan product as measured by the amount of 490 nm absorbance was directly proportional to the number of living cells in culture (Yao and Cooper, 1995; CellTiter 96 Aqueous non-radioactive cell proliferation assay, Promega, 1996; Eilers et al., 1998).
PC12 cells were plated in 96-well tissue culture plates in the absence of growth factors (serum starvation) for 6 days in DMEM supplemented with C3d and assayed for cell survival by reduction of MTS, as described above (Gollapudi and Oblinger, 1999; Williams and Doherty, 1999). […]

In a further data set the test system is cells presenting NCAM. As to conditions: by activating a signalling pathway identical to that activated by homophilic NCAM binding; cited from earlier work.
The subject of the next data set is Hippocampal cells. Kind of data set: Aggregate cell cultures of hippocampal cells (aggregates counted after 24 h). Type of data set: cell-based, rat. As to conditions: ligand present during the aggregation of cells; quantified 24 h after seeding. On the procedure:
A variety of suitable fragments and variants of NCAM has been discussed above. To be able to identify candidate ligands capable of stimulating NCAM function, where the NCAM function means the function of the NCAM molecule, the inventors have established a simple cell culture system (aggregate cell cultures) that permits a quantitative evaluation of the effect of various ligands. Hippocampal cells are provided from rat embryos. The cells are grown in a defined medium and dissociated cells are seeded in microtiter plates. After 24 h, the, amount of aggregates are counted. Compounds to be tested are added to the cell suspension immediately before seeding of the cells in micro-wells. When NCAM Ig1 binding ligands are present during the aggregation of cells, smaller, but more numerous cell aggregates are seen when quantified 24 h after seeding of the cells. The inhibiting effect of the ligands results in a blockage of the formation of large aggregates from many small aggregates as the adhesion, properties of NCAM are blocked. Thus, small but more numerous cell aggregates are seen in the presence of active ligands.

In data set [2] the target is T2, recombinant NCAM Ig1 domain produced in Pichia pastoris (Ig1 PP) (rat, UniProt P13596 20-116, limits assumed).
T2 construct: domain: Ig1; unlabelled analyte in the BIAlite experiment; also called NCAM Ig1-PP
Nature of the data set: SPR (BIAlite), dendrimer peptide immobilised on CM5 chip, Ig1 in solution. The protocol:
Real-time biomolecular interaction analysis was performed using a BIAlite instrument (Pharmacia Biosensor AB, Sweden). All experiments were performed at 25° C. using Hepes buffered saline (HBS: 10 mM Hepes pH 7.4, 150 mM NaCl, 3.4 mM EDTA, 0.005% v/v Surfactant P20 (Pharmacia Biosensor, Sweden) as running buffer. The flow rate was […]. Dendrimer peptides C3d, D3d and D4d (four peptide-monomers coupled to a backbone consisting of three lysines) were immobilised on a sensor chip CM5 (Pharmacia Biosensor AB, Sweden) using the following procedure: the chip was activated by […] 0.05 M N-hydroxysuccinimide, 0.2 M N-ethyl-N′-(dimethylaminopropyl)carbodiimide; peptides were immobilised using […] peptide solution in HBS at a concentration of 60 μg/ml; finally the chip was blocked by 35 μl 1 M ethanolamine hydrochloride pH 8.5. Binding of Ig1 to dendrimer peptides: […] of Ig1 or Ig1I at the indicated concentrations were applied. The chip was regenerated by two […] pulses of 5 mM NaOH. Two independent experiments were performed. The results confirmed that C3d, D3d and D4d bind to the NCAM Ig1 domain.

Data set [3] deals with the molecule itself. Kind of data set: gel filtration chromatography, homophilic dimer formation. For orientation: In gel filtration, larger molecules generally elute earlier.

Where a chain is given by its changes, count along the chain named. No end group written: not given here.

Consider “D3d: Dendrimer of D3: four peptide-monomers coupled to a backbone consisting of three lysines (AKKERQRKDTQ)”, for which the “binding to the NCAM Ig1 domain” value with NCAM Ig1 domain was “bind to the NCAM Ig1 domain”.

For the molecule “D4d: Dendrimer of D4: four peptide-monomers coupled to a backbone consisting of three lysines (ARALNWGAKPK)”, the “binding to the NCAM Ig1 domain” value in the data set with NCAM Ig1 domain is listed as “bind to the NCAM Ig1 domain”.

“ASKKPKRNIKA (listed as Homo sapiens) [C3]”: the preventing cell death entry in data set [1] was “capable of preventing cell death”. In addition, the stimulation of outgrowth result in the data set on cells presenting NCAM was “stimulates outgrowth”. Besides, in the data set on Hippocampal cells, the “inhibition of aggregation of hippocampal cells” value is given as “inhibited aggregation”.

In the case of “C3d: Dendrimer of C3: four peptide-monomers coupled to a backbone consisting of three lysines (ASKKPKRNIKA)”, the “binding to the NCAM Ig1 domain” value with NCAM Ig1 domain is “bind to the NCAM Ig1 domain”.

B1: C3d, tetrameric dendrimer of the C3 peptide (peptide)
peptide: ASKKPKRNIKA
modifications: also: tetrameric dendrimer: four monomers coupled to a backbone of three lysines, synthesised on Rink amide linker
notes: Immobilised on a CM5 sensor chip in the BIAlite experiment; also called dendrimer peptide C3d
As to B1, the binding result in data set [2] was “binds”.

B2: Ig1: Recombinant Ig1 domain of rat NCAM produced in Pichia pastoris (protein)
chain: LQVDIVPSQGEISVGESKFFLCQVAGDAKDKDISWFSPNGEKLSPNQQRISVVWNDDDSSTLTIYNANIDDAGIYKCVVTAEDGTQSEATVNVKIFQ
For B2, in the data set on Hippocampal cells, the “inhibition of aggregation of hippocampal cells” value was “inhibited aggregation”.

B3: NCAM(20-208) first mutant: Glu-30, Glu-35 and Lys-37 substituted with Ala (receptor, UniProt P13596 20-208, looked up)
chain: LQVDIVPSQGAISVGASAFFLCQVAGDAKDKDISWFSPNGEKLSPNQQRISVVWNDDDSSTLTIYNANIDDAGIYKCVVTAEDGTQSEATVNVKIFQKLMFKNAPTPQEFKEGEDAVIVCDVVSSLPPTIIWKHKGRDVILKKDVRFIVLSNNYLQIRGIKKTDEGTYRCEGRILARGEINFKDIQVIV
On to B3, for which the binding result in data set [3] is “no binding”.

B4: NCAM(20-208) third mutant: Glu-30, Glu-35, Lys-37, Arg-192, Arg-196 and Glu-198 substituted with Ala (receptor, UniProt P13596 20-208, looked up)
chain: B3 chain with R173A, R177A, E179A
B4: the binding result in data set [3] is listed as “no binding”.

B5: NCAM(20-208) second mutant: Arg-192, Arg-196 and Glu-198 substituted with Ala (receptor, UniProt P13596 20-208, looked up)
chain: B3 chain with A11E, A16E, A18K, R173A, R177A, E179A
As for B5, the binding result in data set [3] is “no binding”.

B6: D3d, tetrameric dendrimer of the D3 peptide (peptide)
peptide: AKKERQRKDTQ
modifications: also: tetrameric dendrimer: four monomers coupled to a backbone of three lysines, synthesised on Rink amide linker
notes: Immobilised on a CM5 sensor chip in the BIAlite experiment; also called dendrimer peptide D3d
B6: the binding result in data set [2] is “binds”.

B7: D4d, tetrameric dendrimer of the D4 peptide (peptide)
peptide: ARALNWGAKPK
modifications: also: tetrameric dendrimer: four monomers coupled to a backbone of three lysines, synthesised on Rink amide linker
notes: Immobilised on a CM5 sensor chip in the BIAlite experiment; also called dendrimer peptide D4d
As for B7, in data set [2], the binding result was “binds”.

Source of the values: patent publication US20070116702A1, “Survival promoting NCAM binding and MCAM ligand binding compounds” (priority 2001, published 2007).
